Test results published in patent US20240218054A1 (MABLOC, published 2024).
Positions count from the first letter of the chain named.

B1: ADI-49186 (antibody, V domains shown)
VH: QVQLVESGGGVVQPGRSLRLSCAASGFTFSNSGMHWVRQAPGQGLEWVALISYTGETKYYSDSLKARFTISRDNSKNTLYLQMSSLSNEDTAVYYCARDYYASGDGYFDYWGQGTLVTVSS
VL: DIVLTQSPDSLAVSLGERATINCKSSQSVLFGSNQKSCLAWYQQKPGQSPKLLIHWASTRESGVPDRFSGSGSGTDFTLTISSLQAEDVAVYYCQQYYSTPRTFGQGTKVEIK
notes: full-length IgG; also called Antibody Number 38
B2: ADI-50026 (antibody, V domains shown)
VH: EVQLLESGGGVVQPGRSLRLSCAASGFTFTTYAMHWVRQAPGKGLEWVAAVSYDGNNKYYADSVKGRFTISRDNSRNTLYLQMNSLRAEDTAVYFCARNTYYDRSGLIAYWGQGALVTVSS
VL: DIQVTQSPSSLSASVGDRVTITCQASQDISNYLNWYQHKPGRAPKLLIYDASNLERGVPSRFSGSGSGTDFTFTISSLQPEDIATYYCQQYDNLSRLTFGGGTKLEIK
notes: full-length IgG; also called Antibody Number 33
B3: ADI-42809 (antibody, V domains shown)
VH: QVQLVESGPGLVKPSGTLSLTCAVSGDSISSTNWWSWVRQPPGKGLEYIGEIFHSGSTNYNPFLKSRVTISVDKSKNHFSLKLSSVTAADTAVYYCARGPLKSYWYFDLWGRGTLVTVSS
VL: QSVLTQPPSVSAAPGQKVTISCSGSSSNIGNNYVSWYQQLPGTAPKLLIYDNNKRPSGIPDRFSGSKSGTSATLGITGLQTGDEADYYCGTWDTSLSAGRVFGGGTKLTVL
notes: full-length IgG; also called Antibody Number 34
B4: ADI-42830 (antibody, V domains shown)
VH: EVQLLESGPGLVRPSGTLSLTCAVSGASISSNHWWTWVRQPPGKGLEWIGEIYHSGSPTYNPSLKSRVTISVDKSKNQFSLKLNSVTAADTAVYYCASTLWGGPLSVASDYWGQGTLVTVSS
VL: B3 VL with N32Y, L40V, Q80H, D86E, T94S, L96P
notes: full-length IgG; also called Antibody Number 37
B5: ADI-48955 (antibody, V domains shown)
VH: QVQLVQSGGGLVNPGGSLRLSCAASGFTFTDYYMSWIRQAPGKGLEWVSYISSSGNTRYYADSVKGRFTISRDNAKNSLSLQMNSLRPEDTAIYYCARDGSLVNAIDYWGQGTLVTVSS
VL: B3 VL with I29F, N32D, N53D, G99A, R100W, L108V
notes: full-length IgG; also called Antibody Number 40
B6: ADI-42151 (antibody, V domains shown)
VH: B3 VH with V5Q, D27G, T32S, Y48W, F53Y, N59T, F63S, H78Q, S103T
VL: B3 VL with L4V
notes: full-length IgG; also called Antibody Number 51
B7: ADI-46596 (antibody, V domains shown)
VH: QVQLQESGPGLVKPSGTLSLTCAVSGGSISSNNWWSWVRQPPGKGLEWIGDTYHSGSPSYNPSLKSRVTISVDKSKNEFSLKLSSVTAADTAVYFCARYCSGATCYGSNGMDVWGQGTTVTVSS
VL: QSVLTQPPSMSAAPGQKVTISCSGSSSNIGNNYVSWYRQLPGTAPKLLIYDNDKRPSGIPDRFSGSKSGTTATLGITGLQTGDEAVYYCGTWDFRLSALFGGGTKLTVL
notes: full-length IgG; also called Antibody Number 35
B8: ADI-46591 (antibody, V domains shown)
VH: QVQLQQWGPELVKPSGTLSLTCTVSGGSISSISWWSWVRQSPGKGLEWIGEINHSGSTVYNPSLKSRVTISVDKSKKQFSLKLRSVTAADTAVYYCVRYCSSTSCYGLNGMDVWGQGTTVTVSS
VL: B7 VL with M10V, N31S, Y33F, R38Q, D53N, T71S, G75A, V86D, F94T, L106V
notes: full-length IgG; also called Antibody Number 39
B9: ADI-50205 (antibody, V domains shown)
VH: QVQLQESGGGVVQPGRSLRLSCAASGFTFSNFGMHWVRQAPGKGLEWVAIISYDRSNKDYADSVKGRFTISRDNSKNTLYLQMNSLRAEDTAVYYCAKDQCGGDCTADYWGQGTLVTVSS
VL: QSVLIQPASVSGSPGQSITISCTGTSSDVGGDKYVSWYQQHPGKAPKLVIYEVSNRPSGVSNRFSGSKSGNTASLTISGLQAEDEADYYCSSYTSSGTPVVCGGGTKVTVL
notes: full-length IgG; also called Antibody Number 36

These binders were tested against T1, recombinant YFV E protein (soluble E, sE; YFV Asibi strain) (Yellow fever virus, Asibi strain, UniProt Q6DV88 286-678) (assay: BLI monovalent (IgG on tip)).
T1 construct: also called YFV E antigen; YFV E monomer
T1 sequence (Q6DV88 286-678): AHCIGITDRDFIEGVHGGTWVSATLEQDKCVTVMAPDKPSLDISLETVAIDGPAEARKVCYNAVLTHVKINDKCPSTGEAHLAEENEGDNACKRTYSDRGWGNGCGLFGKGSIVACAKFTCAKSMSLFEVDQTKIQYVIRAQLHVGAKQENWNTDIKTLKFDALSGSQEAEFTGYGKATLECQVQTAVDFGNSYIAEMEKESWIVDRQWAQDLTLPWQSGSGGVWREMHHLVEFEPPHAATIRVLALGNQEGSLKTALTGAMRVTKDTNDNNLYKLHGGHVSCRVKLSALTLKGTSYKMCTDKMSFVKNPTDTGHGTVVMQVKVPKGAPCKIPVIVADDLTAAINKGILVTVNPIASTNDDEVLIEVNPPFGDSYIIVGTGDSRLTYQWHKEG

| Binder | Kd [nM] |
| --- | --- |
| B1 | 12.3 |
| B2 | > 100 |
| B3 | 3.78 |
| B4 | 3.48 |
| B5 | 2.05 |
| B6 | 297 |
| B7 | 5.11 |
| B8 | 9.6 |
| B9 | 18.8 |
